Test [1] concerns the target T1, recombinant type-2 Shiga toxin (Stx2) holotoxin (E. coli EHEC O157: H7), P09385.
T1 chain 1: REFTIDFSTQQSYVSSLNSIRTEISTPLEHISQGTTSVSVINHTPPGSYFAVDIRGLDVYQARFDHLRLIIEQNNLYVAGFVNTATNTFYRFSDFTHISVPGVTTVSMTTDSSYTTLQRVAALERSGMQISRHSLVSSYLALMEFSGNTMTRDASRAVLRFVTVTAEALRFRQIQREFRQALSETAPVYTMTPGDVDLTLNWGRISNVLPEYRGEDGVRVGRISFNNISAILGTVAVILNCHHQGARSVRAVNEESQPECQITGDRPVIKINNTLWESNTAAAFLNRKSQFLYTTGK
T1 chain 2: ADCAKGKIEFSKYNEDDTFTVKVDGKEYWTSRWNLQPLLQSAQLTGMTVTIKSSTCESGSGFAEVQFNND

For test [2], the target named is T2, recombinant Stx2B (B subunit of type-2 Shiga toxin) (E. coli EHEC O157: H7), P09386.
T2 chain: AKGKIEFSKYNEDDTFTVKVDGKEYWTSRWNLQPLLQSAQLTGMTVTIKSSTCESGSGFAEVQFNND

B1: polypeptide TF1 (peptide)
peptide: TFNMWLPTFNQW
modifications: not checked
As to B1, in test [1], the dissociation constant Kd was 1.25 µM. Besides, in test [2], the percent of HeLa cells showing fluorescence turned out to be 52.8%; the percent of binding between FITC-Stx2B and HeLa cells blocked came out at 45.7%.

B2: polypeptide WA8 (peptide)
peptide: WAPWYSFTSYHL
modifications: not checked
For B2, the Kd in test [1] came to 24.8 µM. In test [2], the blocking rate of binding between FITC-Stx2B and HeLa cells stood at 24.8%.

For the origin of these results see patent publication US8946384.
